# Results taken from the supplement of paper PMC7877785.
# ± gives the uncertainty stated by the source.
# Assay: self-splicing fitness, log relative to wild type (ln ratio); higher = more splicing; Tetrahymena group I intron in knt gene, E. coli kanamycin selection, DiMSum; sequences stand for … in CUCUCU…GGAGGGAAAAGUUAUCAGGCAUGCACCUGGUAGCUAGUCUUUAAACCAAUAGAUUGCAUCGGUUUAAAAGGCAAGACCGUCAAAUUGCGGGAAAGGGGUCAACAGCCGUUCAGUACCAAGUCUCAGGGGAAACUUUGAGAUGGCCUUGCAAAGGGUAUGGUAAUAAGCUGACGGACAUGGUCCUAACCACGCAGCCAAGUCCUAAGUCAACAGAUCUUCUGUUGAUAUGGAUGCAGUUCACAGACUAAAUGUCGGUCGGGGAAGAUGUAUUCUUCUCAUAAGAUAUAGUCGGACCUCUCCUUAAUGGGAGCUAGCGGAUGAAGUGAUGCAACACUGGAGCCGCUGGGAACUAAUUUGUAUGCGAAAGUAUAUUGAUUAGUUUUGGAGUACUCGUGGUCG
# Summary of the method: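 DiMSum derived fitness as the error-weighted combination of fold changes across replicates, kanamycin versus no kanamycin, normalised to wild type. E. coli BL21(DE3) held the library, which randomised all eight P1ex-region intron nucleotides within the knt kanamycin-resistance gene on pET-22b(+). Six replicate transformations grew overnight at 37°C or 30°C on LB agar with or without 25 μg/mL kanamycin, also containing 100 μg/mL carbenicillin, 50 μM IPTG and 0.2% rhamnose, and pooled colonies were amplicon-sequenced on an Illumina HiSeq 2500.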
Sequence,self-splicing fitness (ln) (30 °C),self-splicing fitness (ln) (37 °C)
AACCAGCAAUAUUACGACAG,-2.65 ± 0.083,-0.775 ± 0.099
AACCAGCAAUAUUACGACUU,0.018 ± 0.059,0.437 ± 0.077
AACCAGCAAUAUUACGAGAG,-3.44 ± 0.15,-2.06 ± 0.12
AACCAGCAAUAUUACGAGUC,-1.82 ± 0.1,-0.825 ± 0.11
AACCAGCAAUAUUACGAUAA,-1.35 ± 0.058,-0.457 ± 0.069
AACCAGCAAUAUUACGAUGA,-0.753 ± 0.069,-0.507 ± 0.08
AACCAGCAAUAUUACGCAGC,-2.4 ± 0.11,-1.29 ± 0.11
AACCAGCAAUAUUACGCCAG,-2.46 ± 0.14,-1.72 ± 0.18
AACCAGCAAUAUUACGCCCG,-0.353 ± 0.1,-0.271 ± 0.17
AACCAGCAAUAUUACGCGUC,-2.08 ± 0.089,-1.12 ± 0.095
AACCAGCAAUAUUACGGACA,-0.462 ± 0.077,-0.0476 ± 0.095
AACCAGCAAUAUUACGGCCA,-0.365 ± 0.067,-0.114 ± 0.085
AACCAGCAAUAUUACGGGAG,-0.751 ± 0.036,-0.132 ± 0.051
AACCAGCAAUAUUACGGGCC,-1.4 ± 0.082,-0.824 ± 0.11
AACCAGCAAUAUUACGGGUA,-0.823 ± 0.045,-0.376 ± 0.055
AACCAGCAAUAUUACGGUAC,-2.82 ± 0.12,-1.1 ± 0.088
AACCAGCAAUAUUACGGUCC,-0.721 ± 0.089,-0.491 ± 0.12
AACCAGCAAUAUUACGUCCU,0.026 ± 0.043,-0.134 ± 0.053
AACCAGCAAUAUUACGUGAC,-2.59 ± 0.087,-1.37 ± 0.1
AACCAGCAAUAUUACGUUGG,-3.14 ± 0.12,-2.42 ± 0.13
AACGAGCAAUAUUACGAACC,-3.57 ± 0.49,-1.66 ± 0.35
AACGAGCAAUAUUACGACCG,-3.46 ± 0.34,
AACGAGCAAUAUUACGACGC,-2 ± 0.14,-0.785 ± 0.18
AACGAGCAAUAUUACGACGU,-0.822 ± 0.09,-0.593 ± 0.089
AACGAGCAAUAUUACGAGGA,-2.36 ± 0.28,-2.34 ± 0.42
AACGAGCAAUAUUACGCCGA,-2.83 ± 0.25,-2.42 ± 0.17

Sequence,self-splicing fitness (ln) (30 °C),self-splicing fitness (ln) (37 °C)
AACGAGCAAUAUUACGGAUC,-2.26 ± 0.19,-2.31 ± 0.17
AACGAGCAAUAUUACGGCAA,-1.49 ± 0.27,-1.9 ± 0.24
AACGAGCAAUAUUACGGCAU,-1.91 ± 0.1,-0.446 ± 0.12
AACGAGCAAUAUUACGGCGU,-1.84 ± 0.098,-0.572 ± 0.088
AACGAGCAAUAUUACGGCUG,-1.6 ± 0.14,-0.126 ± 0.16
AACGAGCAAUAUUACGGGAG,-3.14 ± 0.17,-2.72 ± 0.19
AACGAGCAAUAUUACGGGAU,-4.34 ± 0.19,-3.33 ± 0.23
AACGAGCAAUAUUACGGUUC,-2.87 ± 0.18,-2.09 ± 0.19
AACGAGCAAUAUUACGUAAA,-3 ± 0.24,-2.49 ± 0.33
AACGAGCAAUAUUACGUAGC,-3.51 ± 0.19,-2.44 ± 0.17
AACGAGCAAUAUUACGUCAA,-3.08 ± 0.23,-3.35 ± 0.3
AACGAGCAAUAUUACGUGAU,-3.03 ± 0.18,-0.913 ± 0.13
AACGAGCAAUAUUACGUUCU,-2.19 ± 0.14,-1.93 ± 0.2
AACUAGCAAUAUUACGACGC,-0.567 ± 0.1,-0.205 ± 0.15
AACUAGCAAUAUUACGACGU,-0.165 ± 0.069,0.653 ± 0.1
AACUAGCAAUAUUACGCCAG,-1.99 ± 0.16,-0.848 ± 0.23
AACUAGCAAUAUUACGCCAU,-2.6 ± 0.15,-2.42 ± 0.18
AACUAGCAAUAUUACGCCCA,-0.951 ± 0.14,0.0227 ± 0.17
AACUAGCAAUAUUACGCCCC,0.0551 ± 0.17,-0.32 ± 0.18
AACUAGCAAUAUUACGCCUU,-0.414 ± 0.073,0.376 ± 0.1
AACUAGCAAUAUUACGCGCU,-1.79 ± 0.12,-0.454 ± 0.12
AACUAGCAAUAUUACGCUGA,-2.18 ± 0.14,-1.91 ± 0.13
AACUAGCAAUAUUACGGAAA,-2.54 ± 0.2,-0.697 ± 0.13
AACUAGCAAUAUUACGGCAC,-0.766 ± 0.079,-0.192 ± 0.11
AACUAGCAAUAUUACGGCAU,-0.42 ± 0.062,-0.127 ± 0.075
AACUAGCAAUAUUACGUAAC,0.169 ± 0.15,-1.5 ± 0.3

Sequence,self-splicing fitness (ln) (30 °C),self-splicing fitness (ln) (37 °C)
AACUAGCAAUAUUACGUACU,-0.0487 ± 0.053,0.151 ± 0.073
AACUAGCAAUAUUACGUAUC,-3.83 ± 0.34,-2.38 ± 0.29
AACUAGCAAUAUUACGUAUU,-2.04 ± 0.082,-0.837 ± 0.11
AACUAGCAAUAUUACGUGCU,-2.24 ± 0.083,-1.97 ± 0.12
AACUAGCAAUAUUACGUGGG,-3.79 ± 0.23,-2.38 ± 0.17
AAGAAGCAAUAUUACGAAGG,-3.33 ± 0.38,-2.01 ± 0.36
AAGAAGCAAUAUUACGACUA,0.152 ± 0.072,0.144 ± 0.1
AAGAAGCAAUAUUACGCACG,-1.26 ± 0.082,-0.749 ± 0.12
AAGAAGCAAUAUUACGCAUA,-1.29 ± 0.11,-0.0901 ± 0.12
AAGAAGCAAUAUUACGCUCG,-0.487 ± 0.078,-0.257 ± 0.12
AAGAAGCAAUAUUACGCUUU,-4.1 ± 0.42,-2.58 ± 0.21
AAGAAGCAAUAUUACGGCCA,-0.587 ± 0.097,-0.00293 ± 0.12
AAGAAGCAAUAUUACGGCGG,-0.903 ± 0.1,-0.664 ± 0.12
AAGAAGCAAUAUUACGGGCA,-0.698 ± 0.092,-0.225 ± 0.11
AAGAAGCAAUAUUACGGGGC,,-2.95 ± 0.26
AAGAAGCAAUAUUACGGUUU,-1.44 ± 0.068,-0.413 ± 0.087
AAGAAGCAAUAUUACGUCAG,-2.66 ± 0.2,-1.91 ± 0.16
AAGAAGCAAUAUUACGUCAU,-1.81 ± 0.075,-1.04 ± 0.1
AAGAAGCAAUAUUACGUCGA,-0.754 ± 0.097,0.0801 ± 0.14
AAGAAGCAAUAUUACGUUAA,-2.77 ± 0.16,-0.841 ± 0.11
AAGAAGCAAUAUUACGUUUG,-2.45 ± 0.12,-2.26 ± 0.18
AAGCAGCAAUAUUACGAAUG,-3.74 ± 0.18,-2.45 ± 0.16
AAGCAGCAAUAUUACGACCU,0.301 ± 0.08,0.149 ± 0.11
AAGCAGCAAUAUUACGAUAA,-1.69 ± 0.12,-1.16 ± 0.13
